Measured values reported in the supplement of paper PMC7125110.
± gives the standard error. For some of these results: Fewer inactive variants are shown than the library holds.

B1: glmS ribozyme (parent)
chain: AUAAAAGCGCCAGAACUACAGAAAUGUAGUUGACGAGGAGGAGGUUUAUCGAAUUUUCGGCGGAUGCCUCCAAA

Key:
Conditions in all cases: with glucosamine-6-phosphate
[1] = variants of: B1; test: kcat; higher = faster cleavage; RNA array
How it was run: (§1)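 Glucosamine-6-phosphate (40 μM to 10 mM) in HEPES/KCl/Mg(OAc)2 buffer was flowed over sequenced MiSeq chips, and tiles were imaged over ~14 h. Barcoded ribozyme variants there had been transcribed in situ by E. coli RNA polymerase and were tracked through a hybridised Cy3 probe at 37 °C. One- or two-exponential decay fits to per-tile medians, normalised to baseline and to non-cleaving reference variants, gave kobs. kcat and KM came from weighted Michaelis–Menten fits across concentrations.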

[2] = variants of: B1; test: KM; higher = weaker cofactor use; RNA array
How it was run: as §1

[3] = variants of: B1; test: self-cleavage kobs at 640 uM GlcN6P; higher = faster cleavage; RNA array
How it was run: as §1

[4] = variants of: B1; test: self-cleavage kobs at 2500 uM GlcN6P; higher = faster cleavage; RNA array
How it was run: as §1

[5] = variants of: B1; test: self-cleavage kobs at 10000 uM GlcN6P; higher = faster cleavage; RNA array
How it was run: as §1

[6] = variants of: B1; test: self-cleavage kobs at 40 uM GlcN6P; higher = faster cleavage; RNA array
How it was run: as §1

[7] = variants of: B1; test: self-cleavage kobs at 160 uM GlcN6P; higher = faster cleavage; RNA array
How it was run: as §1

A12U G60A
kcat [1]: 8.33e-05 ± 8e-06 s⁻¹
KM [2]: 2040 ± 700 µM
self-cleavage kobs at 640 uM GlcN6P [3]: 2.88e-05 ± 1.4e-05 s⁻¹
self-cleavage kobs at 2500 uM GlcN6P [4]: 4.12e-05 ± 1e-05 s⁻¹
self-cleavage kobs at 10000 uM GlcN6P [5]: 7.02e-05 ± 8.4e-06 s⁻¹

G32A G37A
kcat [1]: 0.00051 ± 0.00011 s⁻¹
self-cleavage kobs at 2500 uM GlcN6P [4]: 4.62e-05 ± 1e-05 s⁻¹
self-cleavage kobs at 10000 uM GlcN6P [5]: 0.000143 ± 1.8e-05 s⁻¹

U30G U54A
kcat [1]: 0.0115 ± 0.0045 s⁻¹
self-cleavage kobs at 40 uM GlcN6P [6]: 0.000247 ± 3.2e-05 s⁻¹
self-cleavage kobs at 160 uM GlcN6P [7]: 0.000384 ± 7.9e-05 s⁻¹
self-cleavage kobs at 640 uM GlcN6P [3]: 0.00201 ± 0.0004 s⁻¹
self-cleavage kobs at 2500 uM GlcN6P [4]: 0.00795 ± 0.0017 s⁻¹
self-cleavage kobs at 10000 uM GlcN6P [5]: 0.00853 ± 0.0011 s⁻¹

U46G U47A
kcat [1]: 0.0123 ± 0.0053 s⁻¹
self-cleavage kobs at 160 uM GlcN6P [7]: 0.00128 ± 0.00029 s⁻¹
self-cleavage kobs at 640 uM GlcN6P [3]: 0.00231 ± 0.00046 s⁻¹
self-cleavage kobs at 2500 uM GlcN6P [4]: 0.00836 ± 0.0038 s⁻¹
self-cleavage kobs at 10000 uM GlcN6P [5]: 0.0106 ± 0.0026 s⁻¹

C16U U57C
kcat [1]: 0.000329 ± 0.00013 s⁻¹
self-cleavage kobs at 640 uM GlcN6P [3]: 5.65e-05 ± 1.1e-05 s⁻¹
self-cleavage kobs at 2500 uM GlcN6P [4]: 8.73e-05 ± 1.7e-05 s⁻¹
self-cleavage kobs at 10000 uM GlcN6P [5]: 0.00024 ± 3.4e-05 s⁻¹

C68A C71A
kcat [1]: < 1e-05 s⁻¹
self-cleavage kobs at 160 uM GlcN6P [7]: < 1e-05 s⁻¹
self-cleavage kobs at 10000 uM GlcN6P [5]: < 1e-05 s⁻¹

C16G C71G
kcat [1]: 0.000131 ± 1.2e-05 s⁻¹
KM [2]: 303 ± 130 µM
self-cleavage kobs at 160 uM GlcN6P [7]: 6.73e-05 ± 2.1e-05 s⁻¹
self-cleavage kobs at 640 uM GlcN6P [3]: 8e-05 ± 1.3e-05 s⁻¹
self-cleavage kobs at 2500 uM GlcN6P [4]: 0.000114 ± 1.3e-05 s⁻¹
self-cleavage kobs at 10000 uM GlcN6P [5]: 0.00014 ± 1.8e-05 s⁻¹

A14C C16A
kcat [1]: 6.62e-05 ± 7.2e-06 s⁻¹
self-cleavage kobs at 640 uM GlcN6P [3]: 2.75e-05 ± 1.3e-05 s⁻¹
self-cleavage kobs at 2500 uM GlcN6P [4]: 6.73e-05 ± 1.1e-05 s⁻¹
self-cleavage kobs at 10000 uM GlcN6P [5]: 5.95e-05 ± 6.9e-06 s⁻¹

A36C U55A
kcat [1]: < 1e-05 s⁻¹
self-cleavage kobs at 160 uM GlcN6P [7]: < 1e-05 s⁻¹

A6G U55G
kcat [1]: 0.000588 ± 4.1e-05 s⁻¹
KM [2]: 2390 ± 350 µM
self-cleavage kobs at 640 uM GlcN6P [3]: 0.000133 ± 3.4e-05 s⁻¹
self-cleavage kobs at 2500 uM GlcN6P [4]: 0.000299 ± 5.2e-05 s⁻¹
self-cleavage kobs at 10000 uM GlcN6P [5]: 0.000473 ± 7.8e-05 s⁻¹

U45G C67A
kcat [1]: 0.00845 ± 0.0014 s⁻¹
KM [2]: 2670 ± 590 µM
self-cleavage kobs at 40 uM GlcN6P [6]: 0.000114 ± 1.8e-05 s⁻¹
self-cleavage kobs at 160 uM GlcN6P [7]: 0.000663 ± 0.00016 s⁻¹
self-cleavage kobs at 640 uM GlcN6P [3]: 0.00177 ± 0.00033 s⁻¹
self-cleavage kobs at 2500 uM GlcN6P [4]: 0.00369 ± 0.001 s⁻¹
self-cleavage kobs at 10000 uM GlcN6P [5]: 0.00674 ± 0.0011 s⁻¹

G41U C71A
kcat [1]: 0.000252 ± 2.1e-05 s⁻¹
KM [2]: 604 ± 120 µM
self-cleavage kobs at 160 uM GlcN6P [7]: 5.27e-05 ± 9.4e-06 s⁻¹
self-cleavage kobs at 640 uM GlcN6P [3]: 0.000128 ± 1.2e-05 s⁻¹
self-cleavage kobs at 2500 uM GlcN6P [4]: 0.000235 ± 2.8e-05 s⁻¹
self-cleavage kobs at 10000 uM GlcN6P [5]: 0.000219 ± 2.8e-05 s⁻¹

G59U
kcat [1]: 5.77e-05 ± 1.4e-06 s⁻¹
KM [2]: 1210 ± 130 µM
self-cleavage kobs at 40 uM GlcN6P [6]: < 1e-05 s⁻¹
self-cleavage kobs at 640 uM GlcN6P [3]: 1.83e-05 ± 1.7e-06 s⁻¹
self-cleavage kobs at 2500 uM GlcN6P [4]: 4.03e-05 ± 1.3e-06 s⁻¹
self-cleavage kobs at 10000 uM GlcN6P [5]: 5.11e-05 ± 9.9e-07 s⁻¹

G40U C71U
kcat [1]: 0.00842 ± 0.0008 s⁻¹
KM [2]: 1490 ± 200 µM
self-cleavage kobs at 40 uM GlcN6P [6]: 0.000232 ± 1.6e-05 s⁻¹
self-cleavage kobs at 160 uM GlcN6P [7]: 0.000742 ± 0.00011 s⁻¹
self-cleavage kobs at 640 uM GlcN6P [3]: 0.00248 ± 0.00024 s⁻¹
self-cleavage kobs at 2500 uM GlcN6P [4]: 0.00464 ± 0.0005 s⁻¹
self-cleavage kobs at 10000 uM GlcN6P [5]: 0.00794 ± 0.00065 s⁻¹

C11U G37C
kcat [1]: 1.18e-05 ± 3.2e-06 s⁻¹

A39C A48G U55C
kcat [1]: 6.53e-05 ± 4.8e-06 s⁻¹
self-cleavage kobs at 40 uM GlcN6P [6]: < 1e-05 s⁻¹
self-cleavage kobs at 10000 uM GlcN6P [5]: 2.91e-05 ± 1.2e-05 s⁻¹
